Assay [1] has as its target human ABCA1 transporter (ATP-binding cassette transporter A1) (human) (UniProt O95477). The assay is described as follows: 125I-L-37pA (1 µg/ml, 1 hour, 4° C.) bound to ABCA1-transfected HeLa cells, no competitor.
Assay [2] has the same target. Put plainly: cell-based or functional assay.
Assay [3] shares this target. Put plainly: two-step sequential competition on ABCA1-transfected HeLa cells; competitor at 8 µM, tracer 125I-L-37pA.

The results in this text go back to US7572771.

Values joined by “and” are separate entries in the source; they are usually repeats but may differ in a detail not shown here. Identical values can stand only once. Where no end group is shown, it is not given here.

UniProt O95477, sequence (O95477 whole entry): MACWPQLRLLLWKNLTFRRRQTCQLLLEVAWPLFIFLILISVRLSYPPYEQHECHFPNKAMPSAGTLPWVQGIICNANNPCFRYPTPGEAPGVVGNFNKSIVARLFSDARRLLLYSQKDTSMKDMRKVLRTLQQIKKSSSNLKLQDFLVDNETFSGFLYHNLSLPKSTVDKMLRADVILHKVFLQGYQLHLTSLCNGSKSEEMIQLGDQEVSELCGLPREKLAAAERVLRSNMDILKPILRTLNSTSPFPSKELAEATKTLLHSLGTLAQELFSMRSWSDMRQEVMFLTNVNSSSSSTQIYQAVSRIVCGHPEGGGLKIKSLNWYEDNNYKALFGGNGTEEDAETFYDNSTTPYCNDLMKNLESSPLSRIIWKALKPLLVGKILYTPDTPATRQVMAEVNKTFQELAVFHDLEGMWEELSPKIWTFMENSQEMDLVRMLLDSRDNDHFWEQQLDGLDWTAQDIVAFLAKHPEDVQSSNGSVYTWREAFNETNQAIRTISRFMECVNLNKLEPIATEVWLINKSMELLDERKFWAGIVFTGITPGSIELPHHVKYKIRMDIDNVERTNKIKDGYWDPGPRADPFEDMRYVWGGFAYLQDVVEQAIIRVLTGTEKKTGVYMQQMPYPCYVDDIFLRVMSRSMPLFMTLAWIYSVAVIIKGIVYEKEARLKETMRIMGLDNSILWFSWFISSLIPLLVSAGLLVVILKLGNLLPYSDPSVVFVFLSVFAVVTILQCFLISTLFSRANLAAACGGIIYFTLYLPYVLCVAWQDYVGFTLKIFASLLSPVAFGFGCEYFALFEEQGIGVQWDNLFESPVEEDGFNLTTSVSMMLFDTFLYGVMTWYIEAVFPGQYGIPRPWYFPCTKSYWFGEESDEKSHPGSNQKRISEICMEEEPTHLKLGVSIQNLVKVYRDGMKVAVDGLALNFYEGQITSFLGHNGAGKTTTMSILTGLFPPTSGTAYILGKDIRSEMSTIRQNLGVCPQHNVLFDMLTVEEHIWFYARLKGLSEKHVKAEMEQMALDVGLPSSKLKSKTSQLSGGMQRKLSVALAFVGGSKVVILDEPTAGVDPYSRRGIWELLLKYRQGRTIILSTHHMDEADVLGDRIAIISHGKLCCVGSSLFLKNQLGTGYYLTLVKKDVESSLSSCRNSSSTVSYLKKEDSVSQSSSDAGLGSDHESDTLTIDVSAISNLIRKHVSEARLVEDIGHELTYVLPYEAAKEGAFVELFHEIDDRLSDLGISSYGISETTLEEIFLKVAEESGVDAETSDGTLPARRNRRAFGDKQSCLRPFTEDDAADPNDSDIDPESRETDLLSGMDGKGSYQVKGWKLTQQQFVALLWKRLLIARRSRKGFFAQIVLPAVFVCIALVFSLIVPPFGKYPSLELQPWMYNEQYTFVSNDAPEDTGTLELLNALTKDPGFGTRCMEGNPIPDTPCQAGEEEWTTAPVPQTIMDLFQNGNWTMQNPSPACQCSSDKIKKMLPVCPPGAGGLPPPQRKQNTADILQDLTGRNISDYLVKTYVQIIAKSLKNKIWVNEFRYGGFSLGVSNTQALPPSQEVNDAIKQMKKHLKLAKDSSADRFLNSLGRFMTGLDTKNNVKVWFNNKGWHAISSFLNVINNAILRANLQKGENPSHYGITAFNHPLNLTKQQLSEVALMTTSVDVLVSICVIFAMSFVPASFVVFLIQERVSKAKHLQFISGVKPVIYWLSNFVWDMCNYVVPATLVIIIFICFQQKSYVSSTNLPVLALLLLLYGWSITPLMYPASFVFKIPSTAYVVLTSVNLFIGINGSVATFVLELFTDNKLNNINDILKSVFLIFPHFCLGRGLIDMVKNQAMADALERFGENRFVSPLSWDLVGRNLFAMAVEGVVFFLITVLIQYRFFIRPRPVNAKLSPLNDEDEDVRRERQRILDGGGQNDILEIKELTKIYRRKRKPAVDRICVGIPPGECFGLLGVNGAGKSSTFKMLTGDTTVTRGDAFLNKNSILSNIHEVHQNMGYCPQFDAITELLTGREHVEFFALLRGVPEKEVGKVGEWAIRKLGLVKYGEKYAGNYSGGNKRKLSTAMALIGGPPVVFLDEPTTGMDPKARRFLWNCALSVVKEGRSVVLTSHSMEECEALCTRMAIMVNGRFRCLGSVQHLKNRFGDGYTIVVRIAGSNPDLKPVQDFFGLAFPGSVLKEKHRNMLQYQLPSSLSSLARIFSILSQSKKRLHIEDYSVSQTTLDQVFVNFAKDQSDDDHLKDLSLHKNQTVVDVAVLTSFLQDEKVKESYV

With DWLKAFYDKVAEKLKEAFPDWLKAFYDKVAEKLKEAF (also: tracer form 125I-labelled with iodine monochloride) [L-37pA peptide], the cell-bound radiolabeled peptide in the absence of a competitor (pmol/mg cell protein) in assay [1] was determined as 35. In assay [2], the cholesterol and phospholipid efflux, ABCA1 cells against control cells was 2 fold and 4 fold; the concentration at which lipid efflux begins to show saturation was determined as 2 µM. The molecule also came in with a percent of labeled L-37pA binding blocked in assay [3] of 40%.
